Four molecules from publication PMC4094107 (Nature structural & molecular biology, 2010) can be followed below.

B1: GST-PALB2 truncation 1 (P2T1, amino acids 1-200) (domain or fragment, human, UniProt Q86YC2 1-200, looked up)
chain: MDEPPGKPLSCEEKEKLKEKLAFLKREYSKTLARLQRAQRAEKIKHSIKKTVEEQDCLSQQDLSPQLKHSEPKNKICVYDKLHIKTHLDEETGEKTSITLDVGPESFNPGDGPGGLPIQRTDDTQEHFPHRVSDPSGEQKQKLPSRRKKQQKRTFISQERDCVFGTDSLRLSGKRLKEQEEISSKNPARSPVTEIRTHLL
B2: GST-PALB2 truncation 5 (P2T5, amino acids 853-1186) (domain or fragment, human, UniProt Q86YC2 853-1186, looked up)
chain: GNLQLVSELKNPSGSCSVDVSAMFWERAGCKEPCIITACEDVVSLWKALDAWQWEKLYTWHFAEVPVLQIVPVPDVYNLVCVALGNLEIREIRALFCSSDDESEKQVLLKSGNIKAVLGLTKRRLVSSSGTLSDQQVEVMTFAEDGGGKENQFLMPPEETILTFAEVQGMQEALLGTTIMNNIVIWNLKTGQLLKKMHIDDSYQASVCHKAYSEMGLLFIVLSHPCAKESESLRSPVFQLIVINPKTTLSVGVMLYCLPPGQAGRFLEGDVKDHCAAAILTSGTIAIWDLLLGQCTALLPPVSDQHWSFVKWSGTDSHLLAGQKDGNIFVYHYS

The target in one assay is T1, Human RAD51 (purified) (human, UniProt Q06609 1-339).
T1 sequence (looked up): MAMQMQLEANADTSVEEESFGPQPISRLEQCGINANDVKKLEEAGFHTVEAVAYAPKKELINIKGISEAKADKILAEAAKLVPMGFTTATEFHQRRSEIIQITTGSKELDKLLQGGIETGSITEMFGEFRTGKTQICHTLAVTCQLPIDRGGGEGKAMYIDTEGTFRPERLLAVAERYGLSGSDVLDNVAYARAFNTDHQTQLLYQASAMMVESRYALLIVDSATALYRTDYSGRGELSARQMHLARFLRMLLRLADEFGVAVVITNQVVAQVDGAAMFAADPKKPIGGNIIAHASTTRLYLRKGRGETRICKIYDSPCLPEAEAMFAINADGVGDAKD
Put plainly: pull-down.

Assay [1] deals with T2, PALB2 (purified from baculovirus-infected Sf9 cells as GST-PALB2-His) (human, UniProt Q86YC2 1-1186).
T2 sequence (looked up): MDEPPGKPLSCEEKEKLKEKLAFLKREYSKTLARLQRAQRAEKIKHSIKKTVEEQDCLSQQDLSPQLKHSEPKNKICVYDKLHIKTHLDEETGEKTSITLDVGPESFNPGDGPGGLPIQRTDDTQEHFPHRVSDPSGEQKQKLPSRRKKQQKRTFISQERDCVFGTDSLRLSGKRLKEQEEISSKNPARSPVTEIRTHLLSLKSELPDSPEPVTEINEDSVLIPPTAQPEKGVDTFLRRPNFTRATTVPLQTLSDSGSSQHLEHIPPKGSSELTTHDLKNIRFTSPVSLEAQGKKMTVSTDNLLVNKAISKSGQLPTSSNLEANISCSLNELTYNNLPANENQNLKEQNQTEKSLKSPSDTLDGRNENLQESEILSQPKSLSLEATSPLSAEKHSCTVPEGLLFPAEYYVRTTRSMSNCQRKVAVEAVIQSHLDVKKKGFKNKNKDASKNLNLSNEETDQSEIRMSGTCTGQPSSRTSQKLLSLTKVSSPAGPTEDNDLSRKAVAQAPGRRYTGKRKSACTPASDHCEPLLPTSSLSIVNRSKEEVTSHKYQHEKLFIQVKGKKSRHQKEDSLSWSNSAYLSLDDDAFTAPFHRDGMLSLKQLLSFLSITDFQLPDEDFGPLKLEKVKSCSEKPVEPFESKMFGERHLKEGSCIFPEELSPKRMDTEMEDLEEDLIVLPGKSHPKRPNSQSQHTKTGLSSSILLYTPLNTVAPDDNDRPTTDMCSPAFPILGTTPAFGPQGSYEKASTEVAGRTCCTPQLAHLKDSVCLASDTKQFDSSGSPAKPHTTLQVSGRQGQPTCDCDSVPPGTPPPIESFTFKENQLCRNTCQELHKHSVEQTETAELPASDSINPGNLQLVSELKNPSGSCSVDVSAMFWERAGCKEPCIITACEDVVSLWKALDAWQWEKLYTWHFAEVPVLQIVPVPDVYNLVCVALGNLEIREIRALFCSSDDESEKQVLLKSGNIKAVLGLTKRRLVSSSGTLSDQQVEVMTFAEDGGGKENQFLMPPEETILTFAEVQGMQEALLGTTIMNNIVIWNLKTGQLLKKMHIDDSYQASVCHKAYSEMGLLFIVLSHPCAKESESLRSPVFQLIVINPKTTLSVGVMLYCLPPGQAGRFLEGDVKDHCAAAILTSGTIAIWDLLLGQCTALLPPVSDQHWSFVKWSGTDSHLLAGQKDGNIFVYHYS
Put plainly: co-IP.

In assay [2] the target is B1. Nature of the assay: co-IP.
Assay [3] concerns the target B2. Nature of the assay: co-IP.
The target in assay [4] is T2, PALB2 (purified from …). Nature of the assay: co-IP. The source holds these as a separate data set.

Where two headings read alike, the source gives them in different places.

As for B1, the binding result with Human RAD51 (purified) is given as “binds”.

In the case of B2, the binding result in the assay with Human RAD51 (purified) is reported as “binds”.

B3: GST-RAD51 truncation 3 (R51T3, amino acids 184-257) (domain or fragment, human, UniProt Q06609 184-257, looked up)
chain: DVLDNVAYARAFNTDHQTQLLYQASAMMVESRYALLIVDSATALYRTDYSGRGELSARQMHLARFLRMLLRLAD
In the case of B3, the binding result (with PALB2 (purified from …) [1]; in assay [2]; in assay [3]) was “binds” throughout.

B4: BRC3/4-GST polypeptide (BRC3 and BRC4 region of BRCA2, amino acids 1409-1596) (domain or fragment, human, UniProt P51587 1409-1596, looked up)
chain: LTATKTEQNIKDFETSDTFFQTASGKNISVAKESFNKIVNFFDQKPEELHNFSLNSELHSDIRKNKMDILSYEETDIVKHKILKESVPVGTGNQLVTFQGQPERDEKIKEPTLLGFHTASGKKVKIAKESLDKVKNLFDEKEQGTSEITSFSHQWAKTLKYREACKDLELACETIEITAAPKCKEMQN
As for B4, in the assay with PALB2 (purified from …) [4], the binding result is “binds”.
